Measured values as given in patent US20170015742A1 (published 2017).

Tests used:
[1] = target: recombinant human PDGF-BB (human, UniProt P01127 82-190); assay: cell-based or functional assay
[2] = target: recombinant human VEGF165 (human, UniProt P15692 207-395); assay: cell-based or functional assay
Chain of recombinant human VEGF165 (P15692 other isoform, or with tags, fused parts or gaps limits assumed): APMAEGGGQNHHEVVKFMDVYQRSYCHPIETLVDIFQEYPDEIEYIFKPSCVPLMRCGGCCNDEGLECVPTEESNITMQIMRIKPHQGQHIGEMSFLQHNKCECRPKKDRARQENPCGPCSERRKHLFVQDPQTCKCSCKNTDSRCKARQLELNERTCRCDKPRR

Chain of recombinant human PDGF-BB (P01127 82-190 limits assumed): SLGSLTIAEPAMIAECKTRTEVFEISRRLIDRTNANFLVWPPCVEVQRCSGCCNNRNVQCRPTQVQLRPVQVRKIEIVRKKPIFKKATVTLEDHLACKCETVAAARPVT

Binder | Potency IC50 (nM) NIH-3T3 hPDGF-BB [1] | Potency IC50 (nM) HMVEC-d hVEGF165 [2]
CL-33675_GS_1E3.4 (bispecific antibody, human IgG1, kappa, L234A L235A) heavy: EVTLRESGPALVKPTQTLTLTCTFSGFSLSTYGMGVGWIRQPPGKALEWLANIWWDDDKYYNPSLKNRLTISKDTSKNQVVLTMTNMDPVDTATYYCARIESSGPKYSFDYWGQGTMVTVSSGGGGSGGGGSEIQLVQSGSELKKPGASVKVSCKASGYPFTNSGMYWVKQAPGQGLEYMGWINTEAGKPTYADDFKGRFVFSLDTSVSTAYLQISSLKAEDTAVYFCARWGYISDNSYGWFDYWGQGTLVTVSSASTKGPSVFPLAPSSKSTSGGTAALGCLVKDYFPEPVTVSWNSGALTSGVHTFPAVLQSSGLYSLSSVVTVPSSSLGTQTYICNVNHKPSNTKVDKKVEPKSCDKTHTCPPCPAPEAAGGPSVFLFPPKPKDTLMISRTPEVTCVVVDVSHEDPEVKFNWYVDGVEVHNAKTKPREEQYNSTYRVVSVLTVLHQDWLNGKEYKCKVSNKALPAPIEKTISKAKGQPREPQVYTLPPSREEMTKNQVSLTCLVKGFYPSDIAVEWESNGQPENNYKTTPPVLDSDGSFFLYSKLTVDKSRWQQGNVFSCSVMHEALHNAYTQKSLSLSPGK light: EIVLTQSPGTLSLSPGERATLSCRASSGSIWYSFVSWYQQKPGQAPRLLIYADDQRASGIPDRFSGSGSGTDFTLTISRLEPEDFAVYYCQSYGINIDVVFGGGTKVEIKGGSGGGGSGGATQLTQSPSSLSASVGDRVTISCRASEGVYSYMHWYQQKPGKQPKLLIYKASNLASGVPSRFSGSGSGTDFTLTISSLQPEDFATYFCHQNWNDPLTFGQGTKLEIKRTVAAPSVFIFPPSDEQLKSGTASVVCLLNNFYPREAKVQWKVDNALQSGNSQESVTEQDSKDSTYSLSSTLTLSKADYEKHKVYACEVTHQGLSSPVTKSFNRGEC | 0.039 nM | 0.372 nM
9E8.4_GS_1E3.4 (bispecific antibody, human IgG1, kappa, L234A L235A) heavy: EVTLRESGPALVKPTQTLTLTCTFSGFSLSTYGMGVGWIRQPPGKALEWLANIWWDDDKYYNPSLKNRLTISKDTSKNQVVLTMTNMDPVDTATYYCARIESIGTTYSFDYWGQGTMVTVSSGGGGSGGGGSEIQLVQSGSELKKPGASVKVSCKASGYPFTNSGMYWVKQAPGQGLEYMGWINTEAGKPTYADDFKGRFVFSLDTSVSTAYLQISSLKAEDTAVYFCARWGYISDNSYGWFDYWGQGTLVTVSSASTKGPSVFPLAPSSKSTSGGTAALGCLVKDYFPEPVTVSWNSGALTSGVHTFPAVLQSSGLYSLSSVVTVPSSSLGTQTYICNVNHKPSNTKVDKKVEPKSCDKTHTCPPCPAPEAAGGPSVFLFPPKPKDTLMISRTPEVTCVVVDVSHEDPEVKFNWYVDGVEVHNAKTKPREEQYNSTYRVVSVLTVLHQDWLNGKEYKCKVSNKALPAPIEKTISKAKGQPREPQVYTLPPSREEMTKNQVSLTCLVKGFYPSDIAVEWESNGQPENNYKTTPPVLDSDGSFFLYSKLTVDKSRWQQGNVFSCSVMHEALHNAYTQKSLSLSPGK light: EFVLTQSPGTLSLSPGERATLSCERSSGDIGDSYVSWYQQKPGQAPRLVIYADDQRPSGIPDRFSGSGSGTDFTLTISRLEPEDFAVYYCQSYDINIDIVFGGGTKVEIKGGSGGGGSGGATQLTQSPSSLSASVGDRVTISCRASEGVYSYMHWYQQKPGKQPKLLIYKASNLASGVPSRFSGSGSGTDFTLTISSLQPEDFATYFCHQNWNDPLTFGQGTKLEIKRTVAAPSVFIFPPSDEQLKSGTASVVCLLNNFYPREAKVQWKVDNALQSGNSQESVTEQDSKDSTYSLSSTLTLSKADYEKHKVYACEVTHQGLSSPVTKSFNRGEC | 0.131 nM | 0.897 nM
9E8.4_GS_1B10.1 (bispecific antibody, human IgG1, kappa, L234A L235A) heavy: EVTLRESGPALVKPTQTLTLTCTFSGFSLSTYGMGVGWIRQPPGKALEWLANIWWDDDKYYNPSLKNRLTISKDTSKNQVVLTMTNMDPVDTATYYCARIESIGTTYSFDYWGQGTMVTVSSGGGGSGGGGSEVQLVESGGGLVQPGGSLRLSCAASGFSFSKYDMAWFRQAPGKGLEWVASITTSGVGTYYRDSVKGRFTVSRDNAKSTLYLQMNSLRAEDTAVYYCARGYGAMDAWGQGTTVTVSSASTKGPSVFPLAPSSKSTSGGTAALGCLVKDYFPEPVTVSWNSGALTSGVHTFPAVLQSSGLYSLSSVVTVPSSSLGTQTYICNVNHKPSNTKVDKKVEPKSCDKTHTCPPCPAPEAAGGPSVFLFPPKPKDTLMISRTPEVTCVVVDVSHEDPEVKFNWYVDGVEVHNAKTKPREEQYNSTYRVVSVLTVLHQDWLNGKEYKCKVSNKALPAPIEKTISKAKGQPREPQVYTLPPSREEMTKNQVSLTCLVKGFYPSDIAVEWESNGQPENNYKTTPPVLDSDGSFFLYSKLTVDKSRWQQGNVFSCSVMHEALHNAYTQKSLSLSPGK light: EFVLTQSPGTLSLSPGERATLSCERSSGDIGDSYVSWYQQKPGQAPRLVIYADDQRPSGIPDRFSGSGSGTDFTLTISRLEPEDFAVYYCQSYDINIDIVFGGGTKVEIKGGSGGGGSGGDIQMTQSPSSLSASVGDRVTITCKASQDIDDYLSWYQQKPGKSPKLVIYAATRLADGVPSRFSGSGSGTDYTLTISSLQPEDFATYYCLQSSSTPWTFGGGTKVEIKRTVAAPSVFIFPPSDEQLKSGTASVVCLLNNFYPREAKVQWKVDNALQSGNSQESVTEQDSKDSTYSLSSTLTLSKADYEKHKVYACEVTHQGLSSPVTKSFNRGEC | 0.109 nM | 0.391 nM
9E8.4_GS_9E10.1 (bispecific antibody, human IgG1, kappa, L234A L235A) heavy: EVTLRESGPALVKPTQTLTLTCTFSGFSLSTYGMGVGWIRQPPGKALEWLANIWWDDDKYYNPSLKNRLTISKDTSKNQVVLTMTNMDPVDTATYYCARIESIGTTYSFDYWGQGTMVTVSSGGGGSGGGGSEIQLVQSGSELKKPGASVKVSCKASGYTFTNYGMYWVKQAPGQGLEYMGWIDTETGRPTYADDFKGRFVFSLDTSVSTAYLQISSLKAEDTAVYFCARWSGDTTGIRGPWFAYWGQGTLVTVSSASTKGPSVFPLAPSSKSTSGGTAALGCLVKDYFPEPVTVSWNSGALTSGVHTFPAVLQSSGLYSLSSVVTVPSSSLGTQTYICNVNHKPSNTKVDKKVEPKSCDKTHTCPPCPAPEAAGGPSVFLFPPKPKDTLMISRTPEVTCVVVDVSHEDPEVKFNWYVDGVEVHNAKTKPREEQYNSTYRVVSVLTVLHQDWLNGKEYKCKVSNKALPAPIEKTISKAKGQPREPQVYTLPPSREEMTKNQVSLTCLVKGFYPSDIAVEWESNGQPENNYKTTPPVLDSDGSFFLYSKLTVDKSRWQQGNVFSCSVMHEALHNAYTQKSLSLSPGK light: EFVLTQSPGTLSLSPGERATLSCERSSGDIGDSYVSWYQQKPGQAPRLVIYADDQRPSGIPDRFSGSGSGTDFTLTISRLEPEDFAVYYCQSYDINIDIVFGGGTKVEIKGGSGGGGSGGDIRMTQSPSSLSASVGDRVTIECLASEDIYSDLAWYQQKPGKSPKLLIYNANGLQNGVPSRFSGSGSGTDYSLTISSLQPEDVATYFCQQYNYFPGTFGQGTKLEIKRTVAAPSVFIFPPSDEQLKSGTASVVCLLNNFYPREAKVQWKVDNALQSGNSQESVTEQDSKDSTYSLSSTLTLSKADYEKHKVYACEVTHQGLSSPVTKSFNRGEC | 0.317 nM | 0.073 nM
CL-33675_GS_9E10.6 (bispecific antibody, human IgG1, kappa, L234A L235A) heavy: EVTLRESGPALVKPTQTLTLTCTFSGFSLSTYGMGVGWIRQPPGKALEWLANIWWDDDKYYNPSLKNRLTISKDTSKNQVVLTMTNMDPVDTATYYCARIESSGPKYSFDYWGQGTMVTVSSGGGGSGGGGSEVQLVQSGAEVKKPGSSVKVSCKASGYTFTNYGMYWVRQAPGQGLEWMGWIDTETGRPTYADDFKGRFTFTADKSTSTAYMELSSLRSEDTAVYYCARWSGDTTGIRGPWFAYWGQGTLVTVSSASTKGPSVFPLAPSSKSTSGGTAALGCLVKDYFPEPVTVSWNSGALTSGVHTFPAVLQSSGLYSLSSVVTVPSSSLGTQTYICNVNHKPSNTKVDKKVEPKSCDKTHTCPPCPAPEAAGGPSVFLFPPKPKDTLMISRTPEVTCVVVDVSHEDPEVKFNWYVDGVEVHNAKTKPREEQYNSTYRVVSVLTVLHQDWLNGKEYKCKVSNKALPAPIEKTISKAKGQPREPQVYTLPPSREEMTKNQVSLTCLVKGFYPSDIAVEWESNGQPENNYKTTPPVLDSDGSFFLYSKLTVDKSRWQQGNVFSCSVMHEALHNAYTQKSLSLSPGK light: EIVLTQSPGTLSLSPGERATLSCRASSGSIWYSFVSWYQQKPGQAPRLLIYADDQRASGIPDRFSGSGSGTDFTLTISRLEPEDFAVYYCQSYGINIDVVFGGGTKVEIKGGSGGGGSGGDIRMTQSPSSLSASVGDRVTITCLASEDIYSDLAWYQQKPGKSPKLLIYNANGLQNGVPSRFSGSGSGTDYTLTISSLQPEDVATYFCQQYNYFPGTFGQGTKLEIKRTVAAPSVFIFPPSDEQLKSGTASVVCLLNNFYPREAKVQWKVDNALQSGNSQESVTEQDSKDSTYSLSSTLTLSKADYEKHKVYACEVTHQGLSSPVTKSFNRGEC | 0.037 nM | 0.082 nM
9E8.4_GS_9E10.6 (bispecific antibody, human IgG1, kappa, L234A L235A) heavy: EVTLRESGPALVKPTQTLTLTCTFSGFSLSTYGMGVGWIRQPPGKALEWLANIWWDDDKYYNPSLKNRLTISKDTSKNQVVLTMTNMDPVDTATYYCARIESIGTTYSFDYWGQGTMVTVSSGGGGSGGGGSEVQLVQSGAEVKKPGSSVKVSCKASGYTFTNYGMYWVRQAPGQGLEWMGWIDTETGRPTYADDFKGRFTFTADKSTSTAYMELSSLRSEDTAVYYCARWSGDTTGIRGPWFAYWGQGTLVTVSSASTKGPSVFPLAPSSKSTSGGTAALGCLVKDYFPEPVTVSWNSGALTSGVHTFPAVLQSSGLYSLSSVVTVPSSSLGTQTYICNVNHKPSNTKVDKKVEPKSCDKTHTCPPCPAPEAAGGPSVFLFPPKPKDTLMISRTPEVTCVVVDVSHEDPEVKFNWYVDGVEVHNAKTKPREEQYNSTYRVVSVLTVLHQDWLNGKEYKCKVSNKALPAPIEKTISKAKGQPREPQVYTLPPSREEMTKNQVSLTCLVKGFYPSDIAVEWESNGQPENNYKTTPPVLDSDGSFFLYSKLTVDKSRWQQGNVFSCSVMHEALHNAYTQKSLSLSPGK light: EFVLTQSPGTLSLSPGERATLSCERSSGDIGDSYVSWYQQKPGQAPRLVIYADDQRPSGIPDRFSGSGSGTDFTLTISRLEPEDFAVYYCQSYDINIDIVFGGGTKVEIKGGSGGGGSGGDIRMTQSPSSLSASVGDRVTITCLASEDIYSDLAWYQQKPGKSPKLLIYNANGLQNGVPSRFSGSGSGTDYTLTISSLQPEDVATYFCQQYNYFPGTFGQGTKLEIKRTVAAPSVFIFPPSDEQLKSGTASVVCLLNNFYPREAKVQWKVDNALQSGNSQESVTEQDSKDSTYSLSSTLTLSKADYEKHKVYACEVTHQGLSSPVTKSFNRGEC | 0.213 nM | 0.132 nM
